Measurements as given in PMC7215387, “Comparison of Target Recognition by TRAF1 and TRAF2” (International Journal of Molecular Sciences, 2020).

Tests used:
TRAF2 = biological target: T1, TRAF2 (Homo sapiens, UniProt Q12933); assay: Surface plasmon resonance (SPR), TRAF2; assay type: binding; details: TRAF2 versus TRAF1
T1 construct: TRAF2 TRAF domain (amino acid residues 305-501); 6xHis (C); made in house; host or cells: E. coli BL21 (DE3)
T1 sequence (Q12933 305-501): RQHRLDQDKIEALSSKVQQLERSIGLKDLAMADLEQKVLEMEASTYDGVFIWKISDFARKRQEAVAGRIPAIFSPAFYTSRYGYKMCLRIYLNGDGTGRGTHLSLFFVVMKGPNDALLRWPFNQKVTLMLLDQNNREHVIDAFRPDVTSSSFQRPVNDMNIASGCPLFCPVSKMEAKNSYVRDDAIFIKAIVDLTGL
Method: (§1) The binding affinities between TRADD-N and TRAF1 or TRAF2 were further quantitatively analyzed using surface plasmon resonance (SPR) experiments (Figure 3a,b). For the SPR experiment, each purified 6xHis-tagged TRAF1 and TRAF2 was coupled to Ni-NTA sensor chips using a His-tag affinity system. Different concentrations of TRADD-N protein, from 0.39 to 3.125 μM, were analyzed for binding to TRAF1 or TRAF2. […] Given their interaction patterns and affinity differences in complex formation, we modeled the structure of the TRAF1:TRADD-N complex by docking TRADD-N to a previously solved TRAF1 structure based on the TRAF2:TRADD-N complex to better understand the affinity differences (Figure 3c,d). According to the previously determined structure of the TRAF2:TRADD-N complex, two distinct binding regions, Region I and II, were identified (Figure 3e). The specific residues from TRAF2 that contributed to the interaction in Region I were T401, H406, L471, and P474. The interaction-contributing residues on TRAF2 in Region II were D445, R448, P449, D450, S454 and G468. All residues in TRAF2 that participated in the interaction with TRADD-N were conserved in TRAF1, except for S454, which was replaced by alanine in TRAF1 (Figure 3f). The side chain of S454 in TRAF2 formed a stable hydrogen bond with the side chain of Q143 on TRADD-N and contributed to the stable interaction between these two proteins. […]

TRAF2 S454A mutant = assay: Isothermal titration calorimetry (ITC), TRAF2 S454A mutant; assay type: binding; details: Supplementary Figure S1
Method: as §1, with “3f).” for “3f). The side chain of S454 in TRAF2 formed a stable hydrogen bond with the side chain of Q143 on TRADD-N and contributed to the stable interaction between these two proteins.”
A NanoITC (TA Instruments) was used for isothermal titration calorimetry experiments. […] Binding isotherms were analyzed by using the software provided by TA Instruments. […]

affinity of TRAF2 for TRADD-N relative to that of TRAF1 (TRAF2): four times higher
Kd (TRAF2 S454A mutant): ~55 nM
B1: TRADD-N: N-terminal domain of TRADD (TRADD-N, amino acid residues 1-163) (protein)
chain: MAAGQNGHEEWVGSAYLFVESSLDKVVLSDAYAHPQQKVAVYRALQAALAESGGSPDVLQMLKIHRSDPQLIVQLRFCGRQPCGRFLRAYREGALRAALQRSLAAALAQHSVPLQLELRAGAERLDALLADEERCLSCILAQQPDRLRDEELAELEDALRNLK
modifications: left off: His6 (from the vector pET24a), C-terminal, state not stated
